# Results taken from article doi:10.1101/2024.10.01.616040 (bioRxiv, 2024).
# What was measured:
# His-TEV-ORF1p (human) = His-TEV-ORF1p (human) (UniProt Q9UN81); assay: mass photometry
# mass photometry = biological target: the molecule itself; assay: mass photometry
percent of counts that are monomers (His-TEV-ORF1p (human)) [%],Molecule,stoichiometry N (mass photometry)
30,His-TEV-ORF1p (from UniProt Q9UN81 1-338) (natural protein),
,K3A/K4A-ORF1p (natural protein) MGAAQNRKTGNSKTQSASPPPKERSSSPATEQSWMENDFDELREEGFRRSNYSELREDIQTKGKEVENFEKNLEECITRITNTEKCLKELMELKTKARELREECRSLRSRCDQLEERVSAMEDEMNEMKREGKFREKRIKRNEQSLQEIWDYVKRPNLRLIGVPESDVENGTKLENTLQDIIQENFPNLARQANVQIQEIQRTPQRYSSRRATPRHIIVRFTKVEMKEKMLRAAREKGRVTLKGKPIRLTADLSAETLQARREWGPIFNILKEKNFQPRISYPAKLSFISEGEIKYFIDKQMLRDFVTTRPALKELLKEALNMERNNRYQPLQNHAKM,6
,ΔStammer-ORF1p (natural protein) MGKKQNRKTGNSKTQSASPPPKERSSSPATEQSWMENDFDELREEGFRRSNYSELREDIQTKGKEVENFEKNLEECITRITNTEKCLKELKTKARELREECRSLRSRCDQLEERVSAMEDEMNEMKREGKFREKRIKRNEQSLQEIWDYVKRPNLRLIGVPESDVENGTKLENTLQDIIQENFPNLARQANVQIQEIQRTPQRYSSRRATPRHIIVRFTKVEMKEKMLRAAREKGRVTLKGKPIRLTADLSAETLQARREWGPIFNILKEKNFQPRISYPAKLSFISEGEIKYFIDKQMLRDFVTTRPALKELLKEALNMERNNRYQPLQNHAKM,6
